Values quoted from earlier work in paper PMC3601411.

Molecular target: Fibrinogen gamma chain C-terminal region (Homo sapiens) (UniProt P02679)
Assay: isothermal calorimetry

## Clumping factor A (ClfA) 229-545 (from UniProt Q2G015)
  Kd: 657 nM
